The supplement of paper PMC11246515
± gives the standard deviation of the averaged measurements.

Assay: total protein half-life in vivo (active degradation + dilution); higher = more stable protein
[1] = E. coli NCM3722 delta-clpP delta-lon delta-hslV, growth: N-lim chemostat, doubling time 6 h
[2] = E. coli NCM3722 delta-clpP, growth: N-lim chemostat, doubling time 6 h
[3] = E. coli NCM3722 delta-hslV, growth: N-lim chemostat, doubling time 6 h
[4] = E. coli NCM3722 delta-lon, growth: N-lim chemostat, doubling time 6 h
[5] = E. coli NCM3722 delta-smpB, growth: N-lim chemostat, doubling time 6 h
[6] = wild type E. coli NCM3722, growth: C-lim chemostat, doubling time 3 h
[7] = wild type E. coli NCM3722, growth: C-lim chemostat, doubling time 6 h
[8] = wild type E. coli NCM3722, growth: C-lim chemostat, doubling time 12 h
[9] = wild type E. coli NCM3722, growth: N-lim chemostat, doubling time 6 h
[10] = wild type E. coli NCM3722, growth: N-lim chemostat, doubling time 12 h
[11] = wild type E. coli NCM3722, growth: P-lim chemostat, doubling time 6 h
[12] = wild type E. coli NCM3722, growth: P-lim chemostat, doubling time 12 h

Row | Sequence | total protein half-life in vivo [1] | total protein half-life in vivo [2] | total protein half-life in vivo [3] | total protein half-life in vivo [4] | total protein half-life in vivo [5] | total protein half-life in vivo [6] | total protein half-life in vivo [7] | total protein half-life in vivo [8] | total protein half-life in vivo [9] | total protein half-life in vivo [10] | total protein half-life in vivo [11] | total protein half-life in vivo [12]
1 | MLSIKDLHVSVEDKAILRGLSLDVHPGEVHAIMGPNGSGKSTLSATLAGREDYEVTGGTVEFKGKDLLALSPEDRAGEGIFMAFQYPVEIPGVSNQFFLQTALNAVRSYRGQETLDRFDFQDLMEEKIALLKMPEDLLTRSVNVGFSGGEKKRNDILQMAVLEPELCILDESDSGLDIDALKVVADGVNSLRDGKRSFIIVTHYQRILDYIKPDYVHVLYQGRIVKSGDFTLVKQLEEQGYGWLTEQQ | 4.81 ± 0.069 h | 5.52 ± 1.8 h | 4.19 ± 0.79 h | 4.25 ± 0.1 h | 3.63 ± 0.052 h | 2.88 ± 0.13 h | 5.37 ± 0.23 h | 10.1 ± 0.62 h | 3.75 ± 0.3 h | 5.68 ± 0.23 h | 5.47 ± 0.51 h | 9.75 ± 0.2 h
2 | MLSKFKRNKHQQHLAQLPKISQSVDDVDFFYAPADFRETLLEKIASAKQRICIVALYLEQDDGGKGILNALYEAKRQRPELDVRVLVDWHRAQRGRIGAAASNTNADWYCRMAQENPGVDVPVYGVPINTREALGVLHFKGFIIDDSVLYSGASLNDVYLHQHDKYRYDRYHLIRNRKMSDIMFEWVTQNIMNGRGVNRLDDVNRPKSPEIKNDIRLFRQELRDAAYHFQGDADNDQLSVTPLVGLGKSSLLNKTIFHLMPCAEQKLTICTPYFNLPAILVRNIIQLLREGKKVEIIVGDKTANDFYIPEDEPFKIIGALPYLYEINLRRFLSRLQYYVNTDQLVVRLWKDDDNTYHLKGMWVDDKWMLITGNNLNPRAWRLDLENAILIHDPQLELAPQREKELELIREHTTIVKHYRDLQSIADYPVKVRKLIRRLRRIRIDRLISRIL | 5.434 ± 0.046 h | 5.74 ± 0.068 h | 5.18 ± 0.38 h | 5.91 ± 0.5 h | 4.896 ± 0.011 h | 2.97 ± 0.26 h | 5.64 ± 0.11 h | 9.36 ± 0.81 h | 5.01 ± 0.21 h | 8.57 ± 0.86 h | 6.41 ± 0.85 h | 12 ± 1.5 h
3 | MLSRRGHRLSRFRKNKRRLRERLRQRIFFRDKVVPEAMEKPRVLVLTGAGISAESGIRTFRAADGLWEEHRVEDVATPEGFDRDPELVQAFYNARRRQLQQPEIQPNAAHLALAKLQDALGDRFLLVTQNIDNLHERAGNTNVIHMHGELLKVRCSQSGQVLDWTGDVTPEDKCHCCQFPAPLRPHVVWFGEMPLGMDEIYMALSMADIFIAIGTSGHVYPAAGFVHEAKLHGAHTVELNLEPSQVGNEFAEKYYGPASQVVPEFVEKLLKGLKAGSIA | 5.1 ± 0.51 h | 4.14 ± 0.054 h | 4.03 ± 0.65 h | 5.77 ± 0.77 h | 4.15 ± 0.36 h | 2.64 ± 0.21 h | 4.79 ± 0.29 h | 10.2 ± 0.35 h | 4.37 ± 0.24 h | 7.71 ± 0.99 h | 5.56 ± 0.39 h | 10.5 ± 1.2 h
4 | MLSTLRRTLFALLACASFIVHAAAPDEITTAWPVNVGPLNPHLYTPNQMFAQSMVYEPLVKYQADGSVIPWLAKSWTHSEDGKTWTFTLRDDVKFSNGEPFDAEAAAENFRAVLDNRQRHAWLELANQIVDVKALSKTELQITLKSAYYPFLQELALPRPFRFIAPSQFKNHETMNGIKAPIGTGPWILQESKLNQYDVFVRNENYWGEKPAIKKITFNVIPDPTTRAVAFETGDIDLLYGNEGLLPLDTFARFSQNPAYHTQLSQPIETVMLALNTAKAPTNELAVREALNYAVNKKSLIDNALYGTQQVADTLFAPSVPYANLGLKPSQYDPQKAKALLEKAGWTLPAGKDIREKNGQPLRIELSFIGTDALSKSMAEIIQADMRQIGADVSLIGEEESSIYARQRDGRFGMIFHRTWGAPYDPHAFLSSMRVPSHADFQAQQGLADKPLIDKEIGEVLATHDETQRQALYRDILTRLHDEAVYLPISYISMMVVSKPELGNIPYAPIATEIPFEQIKPVKP | 6.58 h | 6.35 h | > 8 h | > 8 h | – | – | > 8 h | > 16 h | 6.2 h | > 16 h | 6.61 h | –
5 | MLSYRHSFHAGNHADVLKHTVQSLIIESLKEKDKPFLYLDTHAGAGRYQLGSEHAERTGEYLEGIARIWQQDDLPAELEAYINVVKHFNRSGQLRYYPGSPLIARLLLREQDSLQLTELHPSDYPLLRSEFQKDSRARVEKADGFQQLKAKLPPVSRRGLILIDPPYEMKTDYQAVVSGIAEGYKRFATGIYALWYPVVLRQQIKRMIHDLEATGIRKILQIELAVLPDSDRRGMTASGMIVINPPWKLEQQMNNVLPWLHSKLVPAGTGHATVSWIVPE | 4.85 ± 0.21 h | 5.06 ± 0.45 h | 4.81 ± 0.14 h | 4.96 ± 0.05 h | 4.87 ± 0.07 h | 3.16 ± 0.27 h | 6.11 ± 0.47 h | 10.7 ± 0.25 h | 5.06 ± 0.073 h | 8.35 ± 0.22 h | 6.55 ± 0.2 h | 14 ± 2.8 h
6 | MLTEQQRRELDWEKTDGLMPVIVQHAVSGEVLMLGYMNPEALDKTLESGKVTFFSRTKQRLWTKGETSGNFLNVVSIAPDCDNDTLLVLANPIGPTCHKGTSSCFGDTAHQWLFLYQLEQLLAERKSADPETSYTAKLYASGTKRIAQKVGEEGVETALAATVHDRFELTNEASDLMYHLLVLLQDQGLDLTTVIENLRKRHQ | 5.08 ± 0.17 h | 4.38 ± 0.43 h | 5.44 ± 1.4 h | 4.24 ± 0.072 h | 4.046 ± 0.0072 h | 2.92 ± 0.14 h | 5.63 ± 1 h | – | 4.51 ± 0.3 h | 6.795 ± 0.027 h | – | 12.9 ± 3.1 h
7 | MLTIQFLCPLPNGLHARPAWELKEQCSQWQSEITFINHRQNAKADAKSSLALIGTGTLFNDSCSLNISGSDEEQARRVLEEYIQVRFIDSDSVQPTQAELTAHPLPRSLSRLNPDLLYGNVLASGVGVGTLTLLQSDSLDSYRAIPASAQDSTRLEHSLATLAEQLNQQLRERDGESKTILSAHLSLIQDDEFAGNIRRLMTEQHQGLGAAIISNMEQVCAKLSASASDYLRERVSDIRDISEQLLHITWPELKPRNKLVLEKPTILVAEDLTPSQFLSLDLKNLAGMILEKTGRTSHTLILARASAIPVLSGLPLDAIARYAGQPAVLDAQCGVLAINPNDAVSGYYQVAQTLADKRQKQQAQAAAQLAYSRDNKRIDIAANIGTALEAPGAFANGAEGVGLFRTEMLYMDRDSAPDEQEQFEAYQQVLLAAGDKPIIFRTMDIGGDKSIPYLNIPQEENPFLGYRAVRIYPEFAGLFRTQLRAILRAASFGNAQLMIPMVHSLDQILWVKGEIQKAIVELKRDGLRHAETITLGIMVEVPSVCYIIDHFCDEVDFFSIGSNDMTQYLYAVDRNNPRVSPLYNPITPSFLRMLQQIVTTAHQRGKWVGICGELGGESRYLPLLLGLGLDELSMSSPRIPAVKSQLRQLDSEACRELARQACECRSAQEIEALLTAFTPEEDVRPLLALENIFVDQDFSNKEQAIQFLCGNLGVNGRTEHPFELEEDVWQREEIVTTGVGFGVAIPHTKSQWIRHSSISIARLAKPIGWQSEMGEVELVIMLTLGANEGMNHVKVFSQLARKLVNKNFRQSLFAAQDAQSILTLLETELTF | 6.54 h | – | – | – | 2.21 h | 2.36 h | – | – | – | – | 3.21 h | –
